Paper PMC4358367, “Structural basis of diverse membrane target recognitions by ankyrins” (eLife, 2014)
Values belong to the binder of their own block, whether it stands above or below them.

Tests used:
[1] = target: T1, Nav1.2_ABD (ankyrin binding domain of Nav1.2, residues 1035–1129); assay: ITC; conditions: chain shown with the change
T1 chain: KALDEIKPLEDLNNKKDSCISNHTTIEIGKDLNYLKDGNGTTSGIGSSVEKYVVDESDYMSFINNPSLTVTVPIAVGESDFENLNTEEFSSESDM

[2] = target: T2, FITC-labeled AnkR_AS peptide; assay: fluorescence polarisation; conditions: chain shown with the change
T2 chain: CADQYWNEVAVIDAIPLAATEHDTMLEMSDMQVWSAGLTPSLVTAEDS

[3] = target: FITC-labeled AnkR_AS peptide (mouse); assay: fluorescence polarisation; FITC-labeled peptide (~1 µM) titrated with AnkB_repeats WT or mutants; 25°C; 50 mM Tris pH 8.0, 100 mM NaCl, 1 mM DTT, 1 mM EDTA; one-site binding model

- Kd [1]: 2600 nM
B1: AnkG_repeats (24 ANK repeats of rat 190 kDa ankyrin-G, residues 38–855), O70511 T94A; N98E (protein)
chain: KSDANASYLRAARAGHLEKALDYIKNGVDVNICNQNGLNALHLASKEGHVEVVSELLQREANVDAAAKKGETALHIASLAGQAEVVKVLVTNGANVNAQSQNGFTPLYMAAQENHLEVVRFLLDNGASQSLATEDGFTPLAVALQQGHDQVVSLLLENDTKGKVRLPALHIAARKDDTKAAALLLQNDTNADIESKMVVNRATESGFTPLHIAAHYGNINVATLLLNRAAAVDFTARNDITPLHVASKRGNANMVKLLLDRGAKIDAKTRDGLTPLHCGARSGHEQVVEMLLDRAAPILSKTKNGLSPLHMATQGDHLNCVQLLLQHNVPVDDVTNDYLTALHVAAHCGHYKVAKVLLDKKANPNAKALNGFTPLHIACKKNRIRVMELLLKHGASIQAVTESGLTPIHVAAFMGHVNIVSQLMHHGASPNTTNVRGETALHMAARSGQAEVVRYLVQDGAQVEAKAKDDQTPLHISARLGKADIVQQLLQQGASPNAATTSGYTPLHLSAREGHEDVAAFLLDHGASLSITTKKGFTPLHVAAKYGKLEVASLLLQKSASPDAAGKSGLTPLHVAAHYDNQKVALLLLDQGASPHAAAKNGYTPLHIAAKKNQMDIATSLLEYGADANAVTRQGIASVHLAAQEGHVDMVSLLLSRNANVNLSNKSGLTPLHLAAQEDRVNVAEVLVNQGAHVDAQTKMGYTPLHVGCHYGNIKIVNFLLQHSAKVNAKTKNGYTPLHQAAQQGHTHIINVLLQNNASPNELTVNGNTALAIARRLGYISVVDTLKVVTEEIMTTTTITEKHKMNVPETMNEVLDMS

- Kd [2]: 410 nM
B2: AnkB_repeats (24 ANK repeats of human 220 kDa ankyrin-B, residues 28–873), Q01484 L366Q; F399Q; L432Q (protein)
chain: KSDSNASFLRAARAGNLDKVVEYLKGGIDINTCNQNGLNALHLAAKEGHVGLVQELLGRGSSVDSATKKGNTALHIASLAGQAEVVKVLVKEGANINAQSQNGFTPLYMAAQENHIDVVKYLLENGANQSTATEDGFTPLAVALQQGHNQAVAILLENDTKGKVRLPALHIAARKDDTKSAALLLQNDHNADVQSKMMVNRTTESGFTPLHIAAHYGNVNVATLLLNRGAAVDFTARNGITPLHVASKRGNTNMVKLLLDRGGQIDAKTRDGLTPLHCAARSGHDQVVELLLERGAPLLARTKNGLSPLHMAAQGDHVECVKHLLQHKAPVDDVTLDYQTALHVAAHCGHYRVTKLLLDKRANPNARALNGQTPLHIACKKNRIKVMELLVKYGASIQAITESGQTPIHVAAFMGHLNIVLLLLQNGASPDVTNIRGETALHMAARAGQVEVVRCLLRNGALVDARAREEQTPLHIASRLGKTEIVQLLLQHMAHPDAATTNGYTPLHISAREGQVDVASVLLEAGAAHSLATKKGFTPLHVAAKYGSLDVAKLLLQRRAAADSAGKNGLTPLHVAAHYDNQKVALLLLEKGASPHATAKNGYTPLHIAAKKNQMQIASTLLNYGAETNIVTKQGVTPLHLASQEGHTDMVTLLLDKGANIHMSTKSGLTSLHLAAQEDKVNVADILTKHGADQDAHTKLGYTPLIVACHYGNVKMVNFLLKQGANVNAKTKNGYTPLHQAAQQGHTHIINVLLQHGAKPNATTANGNTALAIAKRLGYISVVDTLKVVTEEVTTTTTTITEKHKLNVPETMTEVLDVSDEEGDDTMTGDGGEYLRPEDLKELGDD

- fold decrease in AnkR AS binding against WT ANK repeats [3]: 3 fold
B3: AnkB_repeats site 3 mutant 'LFL' (Leu366, Phe399 and Leu432 to Gln) (domain or fragment)
chain: KSDSNASFLRAARAGNLDKVVEYLKGGIDINTCNQNGLNALHLAAKEGHVGLVQELLGRGSSVDSATKKGNTALHIASLAGQAEVVKVLVKEGANINAQSQNGFTPLYMAAQENHIDVVKYLLENGANQSTATEDGFTPLAVALQQGHNQAVAILLENDTKGKVRLPALHIAARKDDTKSAALLLQNDHNADVQSKMMVNRTTESGFTPLHIAAHYGNVNVATLLLNRGAAVDFTARNGITPLHVASKRGNTNMVKLLLDRGGQIDAKTRDGLTPLHCAARSGHDQVVELLLERGAPLLARTKNGLSPLHMAAQGDHVECVKHLLQHKAPVDDVTLDYQTALHVAAHCGHYRVTKLLLDKRANPNARALNGQTPLHIACKKNRIKVMELLVKYGASIQAITESGQTPIHVAAFMGHLNIVLLLLQNGASPDVTNIRGETALHMAARAGQVEVVRCLLRNGALVDARAREEQTPLHIASRLGKTEIVQLLLQHMAHPDAATTNGYTPLHISAREGQVDVASVLLEAGAAHSLATKKGFTPLHVAAKYGSLDVAKLLLQRRAAADSAGKNGLTPLHVAAHYDNQKVALLLLEKGASPHATAKNGYTPLHIAAKKNQMQIASTLLNYGAETNIVTKQGVTPLHLASQEGHTDMVTLLLDKGANIHMSTKSGLTSLHLAAQEDKVNVADILTKHGADQDAHTKLGYTPLIVACHYGNVKMVNFLLKQGANVNAKTKNGYTPLHQAAQQGHTHIINVLLQHGAKPNATTANGNTALAIAKRLGYISVVDTLKVVTEEVTTTTTTITEKHKLNVPETMTEVLDVSDEEGDDTMTGDGGEYLRPEDLKELGDD

- fold decrease in AnkR AS binding against WT ANK repeats [3]: 20 fold
B4: AnkB_repeats site 1 mutant 'FF' (Phe131 and Phe164 to Gln) (domain or fragment)
chain: KSDSNASFLRAARAGNLDKVVEYLKGGIDINTCNQNGLNALHLAAKEGHVGLVQELLGRGSSVDSATKKGNTALHIASLAGQAEVVKVLVKEGANINAQSQNGQTPLYMAAQENHIDVVKYLLENGANQSTATEDGQTPLAVALQQGHNQAVAILLENDTKGKVRLPALHIAARKDDTKSAALLLQNDHNADVQSKMMVNRTTESGFTPLHIAAHYGNVNVATLLLNRGAAVDFTARNGITPLHVASKRGNTNMVKLLLDRGGQIDAKTRDGLTPLHCAARSGHDQVVELLLERGAPLLARTKNGLSPLHMAAQGDHVECVKHLLQHKAPVDDVTLDYLTALHVAAHCGHYRVTKLLLDKRANPNARALNGFTPLHIACKKNRIKVMELLVKYGASIQAITESGLTPIHVAAFMGHLNIVLLLLQNGASPDVTNIRGETALHMAARAGQVEVVRCLLRNGALVDARAREEQTPLHIASRLGKTEIVQLLLQHMAHPDAATTNGYTPLHISAREGQVDVASVLLEAGAAHSLATKKGFTPLHVAAKYGSLDVAKLLLQRRAAADSAGKNGLTPLHVAAHYDNQKVALLLLEKGASPHATAKNGYTPLHIAAKKNQMQIASTLLNYGAETNIVTKQGVTPLHLASQEGHTDMVTLLLDKGANIHMSTKSGLTSLHLAAQEDKVNVADILTKHGADQDAHTKLGYTPLIVACHYGNVKMVNFLLKQGANVNAKTKNGYTPLHQAAQQGHTHIINVLLQHGAKPNATTANGNTALAIAKRLGYISVVDTLKVVTEEVTTTTTTITEKHKLNVPETMTEVLDVSDEEGDDTMTGDGGEYLRPEDLKELGDD

- Kd [3]: 140 nM
B5: AnkB_repeats (24 ANK repeats of human 220 kDa ankyrin-B, residues 28–873) (domain or fragment)
chain: KSDSNASFLRAARAGNLDKVVEYLKGGIDINTCNQNGLNALHLAAKEGHVGLVQELLGRGSSVDSATKKGNTALHIASLAGQAEVVKVLVKEGANINAQSQNGFTPLYMAAQENHIDVVKYLLENGANQSTATEDGFTPLAVALQQGHNQAVAILLENDTKGKVRLPALHIAARKDDTKSAALLLQNDHNADVQSKMMVNRTTESGFTPLHIAAHYGNVNVATLLLNRGAAVDFTARNGITPLHVASKRGNTNMVKLLLDRGGQIDAKTRDGLTPLHCAARSGHDQVVELLLERGAPLLARTKNGLSPLHMAAQGDHVECVKHLLQHKAPVDDVTLDYLTALHVAAHCGHYRVTKLLLDKRANPNARALNGFTPLHIACKKNRIKVMELLVKYGASIQAITESGLTPIHVAAFMGHLNIVLLLLQNGASPDVTNIRGETALHMAARAGQVEVVRCLLRNGALVDARAREEQTPLHIASRLGKTEIVQLLLQHMAHPDAATTNGYTPLHISAREGQVDVASVLLEAGAAHSLATKKGFTPLHVAAKYGSLDVAKLLLQRRAAADSAGKNGLTPLHVAAHYDNQKVALLLLEKGASPHATAKNGYTPLHIAAKKNQMQIASTLLNYGAETNIVTKQGVTPLHLASQEGHTDMVTLLLDKGANIHMSTKSGLTSLHLAAQEDKVNVADILTKHGADQDAHTKLGYTPLIVACHYGNVKMVNFLLKQGANVNAKTKNGYTPLHQAAQQGHTHIINVLLQHGAKPNATTANGNTALAIAKRLGYISVVDTLKVVTEEVTTTTTTITEKHKLNVPETMTEVLDVSDEEGDDTMTGDGGEYLRPEDLKELGDD

- Kd [2]: 3100 nM
B6: AnkB_repeats (24 ANK repeats of human 220 kDa ankyrin-B, residues 28–873), Q01484 I267Q; L300Q (protein)
chain: KSDSNASFLRAARAGNLDKVVEYLKGGIDINTCNQNGLNALHLAAKEGHVGLVQELLGRGSSVDSATKKGNTALHIASLAGQAEVVKVLVKEGANINAQSQNGFTPLYMAAQENHIDVVKYLLENGANQSTATEDGFTPLAVALQQGHNQAVAILLENDTKGKVRLPALHIAARKDDTKSAALLLQNDHNADVQSKMMVNRTTESGFTPLHIAAHYGNVNVATLLLNRGAAVDFTARNGQTPLHVASKRGNTNMVKLLLDRGGQIDAKTRDGQTPLHCAARSGHDQVVELLLERGAPLLARTKNGLSPLHMAAQGDHVECVKHLLQHKAPVDDVTLDYLTALHVAAHCGHYRVTKLLLDKRANPNARALNGFTPLHIACKKNRIKVMELLVKYGASIQAITESGLTPIHVAAFMGHLNIVLLLLQNGASPDVTNIRGETALHMAARAGQVEVVRCLLRNGALVDARAREEQTPLHIASRLGKTEIVQLLLQHMAHPDAATTNGYTPLHISAREGQVDVASVLLEAGAAHSLATKKGFTPLHVAAKYGSLDVAKLLLQRRAAADSAGKNGLTPLHVAAHYDNQKVALLLLEKGASPHATAKNGYTPLHIAAKKNQMQIASTLLNYGAETNIVTKQGVTPLHLASQEGHTDMVTLLLDKGANIHMSTKSGLTSLHLAAQEDKVNVADILTKHGADQDAHTKLGYTPLIVACHYGNVKMVNFLLKQGANVNAKTKNGYTPLHQAAQQGHTHIINVLLQHGAKPNATTANGNTALAIAKRLGYISVVDTLKVVTEEVTTTTTTITEKHKLNVPETMTEVLDVSDEEGDDTMTGDGGEYLRPEDLKELGDD

- fold decrease in AnkR AS binding against WT ANK repeats [3]: 20 fold
B7: AnkB_repeats site 2 mutant 'IL' (Ile267 and Leu300 to Gln) (domain or fragment)
chain: KSDSNASFLRAARAGNLDKVVEYLKGGIDINTCNQNGLNALHLAAKEGHVGLVQELLGRGSSVDSATKKGNTALHIASLAGQAEVVKVLVKEGANINAQSQNGFTPLYMAAQENHIDVVKYLLENGANQSTATEDGFTPLAVALQQGHNQAVAILLENDTKGKVRLPALHIAARKDDTKSAALLLQNDHNADVQSKMMVNRTTESGFTPLHIAAHYGNVNVATLLLNRGAAVDFTARNGQTPLHVASKRGNTNMVKLLLDRGGQIDAKTRDGQTPLHCAARSGHDQVVELLLERGAPLLARTKNGLSPLHMAAQGDHVECVKHLLQHKAPVDDVTLDYLTALHVAAHCGHYRVTKLLLDKRANPNARALNGFTPLHIACKKNRIKVMELLVKYGASIQAITESGLTPIHVAAFMGHLNIVLLLLQNGASPDVTNIRGETALHMAARAGQVEVVRCLLRNGALVDARAREEQTPLHIASRLGKTEIVQLLLQHMAHPDAATTNGYTPLHISAREGQVDVASVLLEAGAAHSLATKKGFTPLHVAAKYGSLDVAKLLLQRRAAADSAGKNGLTPLHVAAHYDNQKVALLLLEKGASPHATAKNGYTPLHIAAKKNQMQIASTLLNYGAETNIVTKQGVTPLHLASQEGHTDMVTLLLDKGANIHMSTKSGLTSLHLAAQEDKVNVADILTKHGADQDAHTKLGYTPLIVACHYGNVKMVNFLLKQGANVNAKTKNGYTPLHQAAQQGHTHIINVLLQHGAKPNATTANGNTALAIAKRLGYISVVDTLKVVTEEVTTTTTTITEKHKLNVPETMTEVLDVSDEEGDDTMTGDGGEYLRPEDLKELGDD
